Data on 8 molecules can be found in US20260263614A1, “ANTIBODY DRUG CONJUGATES THAT BIND CDCP1 AND USES THEREOF” (Pheon Therapeutics Ltd, priority 2022, published 2026).

Where two headings read alike, the source gives them in different places.

Series [1] relates to linear double-stranded TyrT fragment. Put plainly: DNA cross-linking assay. The format is biochemical. How it is done:
The preparation of the TyrT DNA fragment has been previously described. Briefly, the sequence which had been cloned into the BamHI site of pUC18 was obtained by cutting with HindIII and EcoRI. Radiolabelled DNA fragments were prepared by filling in the 3′-end of the HindIII site with [α-^32P]dATP using Klenow DNA polymerase (exo-).
The radiolabelled DNA fragment was separated from the remainder of the plasmid DNA on a 6% non-denaturing polyacrylamide gel. The gel (20 cm long, 0.3 mm thick) was run at 400 V in 1×TBE running buffer for about 1-2 h, until the bromophenol blue had run most of the way down the gel. The glass plates were separated and the position of the labelled DNA fragment was established by short (1 min) exposure to an X-ray film. The relevant band was then cut from the gel and the radiolabelled DNA eluted by adding 300 μL 10 mM Tris-HCl, pH 7.5 containing 0.1 mM EDTA and gently agitating overnight at room temperature. The eluted DNA was finally precipitated with ethanol and re-suspended in a suitable volume of 10 mM Tris-HCl, pH 7.5 containing 0.1 mM EDTA buffer so as to give at least 10 counts per second/μL on a hand-held Geiger counter. With fresh plasmid and α-^32P-dATP this process typically generated about 150 μL of radiolabelled fragment DNA. The absolute concentration of the DNA is not important, and it is typically lower than 10 nM.
Radiolabelled DNA ([…]) was mixed with 1.5 μL ligand solution of various concentrations (10 μM-10 nM) and incubated overnight at 37° C.
After overnight incubation, the samples were mixed with 7 μL loading solution (80% formamide containing 10 mM EDTA, 10 mM NaOH, 0.1% bromophenol blue) and incubated at 65° C. for 5 min. Control 1 (C1) for native double-stranded DNA consisted of 1.5 μL labelled DNA, 1.5 μL 10 mM Tris-HCl, pH 7.5 containing 0.1 mM EDTA and 7 μL 1× loading dye. […]
The ability of 26 to cross-link DNA was evaluated using an assay involving a linear double-stranded TyrT fragment (FIG. 17). […]

In series [2] the test system is HexA and MS1 DNA fragments. Description: DNA footprinting. The class given is binding. The method, then:
Footprinting reactions were performed as using previously described methods using the DNA fragments HexA and HexB, which together contain all 64 symmetrical hexanucleotide sequences, and MS1 that contains all possible […] tetranucleotide sequences. The DNA fragments were obtained by cutting the parent plasmids with HindIII and SacI (for HexA and MS1) or EcoRI and PstI (for HexB), and were labelled at the 3′-end of the HindIII or EcoRI sites with [α-^32P]dATP using reverse transcriptase or exo-Klenow fragment. After gel purification, the radiolabelled DNA was dissolved in 10 mM Tris-HCl pH 7.5 containing 0.1 mM EDTA, at a concentration of about 10 c.p.s per μL as determined on a hand held Geiger counter. 1.5 μL of radiolabelled DNA was mixed with 1.5 μL ligand that had been freshly diluted in 10 mM Tris-HCl pH 7.5, containing 10 mM NaCl. The complexes were left to equilibrate for at least 12 hours before digesting with 2 μL DNase I (final concentration about 0.01 units/mL). The reactions were stopped after 1 minute by adding 4 μL of formamide containing 10 mM EDTA and bromophenol blue (0.1% w/v). The samples were then heated at 100° C. for 3 minutes before loading onto 8% denaturing polyacrylamide gels containing 8 M urea. Gels were fixed in 10% acetic acid, transferred to 3 MM paper, dried and exposed to a phosphor screen overnight, before analysing with a Typhoon phosphorimager
The DNA sequence selectivity profile of the molecules was investigated using a modification of a previously established DNA footprinting assay. Following an overnight incubation of the ligand-DNA complexes, the mixture was mixed with strand separation buffer containing 10 mM EDTA, 10 mM NaOH, 0.1% bromophenol blue, 80% formamide and incubated at 100° C. for 3 min. The mixture was then immediately cooled on ice and run on an 8% denaturing gel. […] The possible adducts formed within the HexA sequences are shown in FIGS. 20 and 21, respectively.

A short description of series [3]: Comparative repeat-dose rat toxicity study. The format is in vivo. The note with it: DAR 8 on a Trastuzumab backbone; IV once every 3 weeks, two doses, 20 or 60 mg/kg.
For series [4] the following is noted: comparison value of another MMAE ADC; cited from earlier work.
For series [5], the target named is T1, CDCP1 on antigen-positive cells (A427; CDCP1+ cells MDA-MB-468, PC3, DU145) (Homo sapiens (Human), UniProt Q9H5V8 30-836, On the FIG. 45 cell lines, part of the CDCP1 is proteolytically cleaved in the extracellular domain; the cleavage site is not stated. The uncleaved mature protein is given.).
T1 construct: also called the antigen; antigen positive cell-line (A427)
Description: flow cytometry on MDA-MB-468 cells (CDCP1+ cleavage), channel R712-A. For orientation: Flow cytometry measures light scatter and fluorescence of single cells or particles in a stream.

The target of series [6] is T2, huCDCP1(F30-T667 Q525)-8×His_T3 (human, UniProt Q9H5V8 30-667).
T2 construct: The construct name gives the limits F30-T667 and Q525; also called recombinant CDCP1 ECD; CDCP1 ECD
Put plainly: SPR, recombinant CDCP1 ECD.

Series [7] has as its target T2, huCDCP1(F30-T667 Q525)-8×His_T3. Description: SPR, huCDCP1(F30-T667 Q525)-8×His_T3 as analyte; mAb lot T12. Background: Surface plasmon resonance follows binding to a sensor surface in real time, without labels.
The target in series [8] is T1, CDCP1 on antigen-positive cells (A427; …). Put plainly: binding to CDCP1+ cells (cell line not given), % Maximum against log concentration, fitted curve.
In series [9] the target is T2, huCDCP1(F30-T667 Q525)-8×His_T3. Description: SPR, huCDCP1(F30-T667 Q525)-8×His_T3 as analyte; mAb lot T14.
Series [10] deals with T1, CDCP1 on antigen-positive cells (A427; …). Description: binding to CDCP1+ cells (cell line not given), % Maximum against log concentration, fitted curve. The source holds these as a separate data set.
The target is the same in series [11]. The description is as above. The source holds these as a separate data set.

`COc1cc2c(cc1OCCCC(=O)Nc1cc(C(=O)Nc3ccc(N)cc3)n(C)c1)N=C[C@@H]1CCCCN1C2=O` [Compound 19, (S)—N-(4-Aminophenyl)-4-(4-((2-methoxy-12-oxo-6a,7,8,9,10,12-hexahydrobenzo[e]pyrido[1,2-a][1,4]diazepin-3-yl)oxy)butanamido)-1-methyl-1H-pyrrol-2-carboxamide]: the “ability to cross-link DNA (conclusion)” value in series [1] is “incapable of cross-linking DNA”.
`COc1cc2c(cc1OCCCC(=O)Nc1cc(C(=O)Nc3ccc(-c4cc(C(=O)Nc5ccc(N)cc5)n(C)c4)cc3)n(C)c1)N=C[C@@H]1CCCCN1C2=O` [Compound 26, (S)—N-(4-aminophenyl)-4-(4-(4-(4-((2-methoxy-12-oxo-6a,7,8,9,10,12-hexahydrobenzo[e]pyrido[1,2-a][1,4]diazepin-3-yl)oxy)butanamido)-1-methyl-1H-pyrrol-2-carboxamido)phenyl)-1-methyl-1H-pyrrol-2-carboxamide]: in series [1], the “ability to cross-link DNA (conclusion)” value is reported as “incapable of cross-linking DNA”. Besides, in series [1] (six concentrations, overnight incubation at 37° C., denaturing gel), the DNA interstrand cross-links result is reported as “not detectable at any concentration”. In addition, in series [2], the “DNA stabilisation and sequence selectivity (biophysical summary)” value was “effectively stabilises DNA with a high degree of sequence-specificity”; the “DNA-binding site (X any base, W adenine or thymine)” value is reported as “XGXWWWW”. Also, the “footprints (preferred sites) on HexA” value in series [2] (overnight incubation of ligand-DNA complexes) is “only five preferred sites”.
On to `CC[C@@]1(O)C(=O)OCc2c1cc1n(c2=O)Cc2c-1nc1cc(F)c(C)c3c1c2[C@@H](NC(=O)CO)CC3` [Dxd, reference compound], for which the tolerability result in series [3] is on record as “well tolerated”.
As for Adcetris, the “ADC cyno t1/2” value in [4] is 45 to 72 h.

B1: mAbs-CDCPA1 Sequence 2 (anti-CDCP1 antibody, Sequence 2) (antibody, V domains shown)
VH: QVQLVQSGAEVKKPGSSVKVSCKASGGTFSSYAMSWVRQAPGQGLEWMGGIIPILGTTNYAQKFQGRVTITADKSTSTAYMELSSLRSEDTAVYYCAREGLYAFDIWGQGTMVTVSS
VL: DIQMTQSPSSLSASVGDRVTITCRASQSISSYLNWYQQKPGKAPKFLIYVASSLQSGVPSRFSGRGSGTDFTLTISSLQPEDFATYYCQQSYSTPWTFGQGTKVEIK
As for B1, the binding result in series [5] is “binds”.

B2: CDCP1 mAb (unconjugated IgG1 antibody targeted to CDCP1, Sequence 1) (antibody, V domains shown)
VH: EVQLLESGGGLVQPGGSLRLSCAASGFTFSNYAMNWVRQAPGKGLEWVSAISGGGGSTYYADSVKGRFTISRDNSKNTLYLQMNSLRAEDTAVYYCAKESITMVRGVMDYYGMDVWGQGTTVTVSS
VL: DIQLTQSPSFLSASVGDRVTITCRASQGISSYLAWYQQKPGKAPKLLIYAASTLQGGVPSRFSGSGSGTEFTLTISSLQPEDFATYYCQHLNRFPRTFGQGTKVEIK
notes: IgG1; also called unconjugated CDCP1-mAb; unconjugated CDCP1 mAb
As usually defined, the Kd is the equilibrium constant for the complex coming apart. By koff is commonly meant a measure of how fast the partners let go of each other. Read a low koff as a long-lived complex. By kon is commonly meant the rate constant with which the complex forms. For B2, in series [6], the equilibrium dissociation constant (Kd) was roughly 1 nM. In [7], this molecule returned a dissociation constant (Kd) of 0.8 nM, a koff of 0.000468 s⁻¹ and an association rate constant (kon) of 584000 M⁻¹ s⁻¹. The molecule further came in with an EC50 in series [8] of 0.207 µg/mL.

B3: CDCP1-vcMMAE (DAR of 4) (antibody, V domains shown)
VH: B2 VH
VL: B2 VL
modifications: vc-MMAE (Val-Cit linker, monomethyl auristatin E) conjugated to the antibody, DAR of 4; sites not stated
notes: also called CDCP1-MMAE
Consider B3, for which, in series [9], binding was characterised by a dissociation constant (Kd) of 0.604 nM, the koff was determined as 0.00038 s⁻¹ and the kon worked out at 629000 M⁻¹ s⁻¹. Moreover, the EC50 in series [10] came to 0.384 µg/mL.

B4: ADC3 (CDCP1 mAb conjugated to compound 30, DAR of 8) (antibody, IgG1, V domains shown)
VH: B2 VH
VL: B2 VL
modifications: compound 30 (Mal-amido-PEG8-Val-Ala-exatecan) conjugated stochastically to reduced cysteines of the IgG1, average DAR 7.3 (called DAR of 8); sites not stated
notes: also called CDCP1-targeted exatecan conjugate
In series [9], B4 gave a Kd of 0.57 nM, a koff of 0.000422 s⁻¹ and a kon of 740000 M⁻¹ s⁻¹. This molecule also registered an EC50 in [11] of 0.16 µg/mL.
